From patent US20240270793A1, “COMPOSITIONS” (UNIVERSITY OF SOUTHAMPTON, priority 2020, published 2024)
“Also recorded” adds a separate entry of the source. Each block holds one molecule with its values, some of them ahead of it. Numbered stars: 1 amine (or outer) side, 2 acyl side, 3 side chain; on linkers, the order of the positions; unused ones are H or OH. Square brackets hold non-standard residues; d marks the D form. Peptide text beside a SMILES is read from it. Cys(Me) = S-methylcysteine, cys(Me), CSC[C@H](N[*:1])C(=O)[*:2]; Pen = CC(C)(S)[C@H](N)C(=O)O; hLeu = CC(C)CC[C@H](N)C(=O)O; hCys = N[C@@H](CCS)C(=O)O; Nle = CCCC[C@H](N)C(=O)O; Nva = CCC[C@H](N)C(=O)O; Aib = CC(C)(N)C(=O)O

What was measured:
HIF-1α PAS-B (238-349) = target: T1, HIF-1α PAS-B (238-349) (Homo sapiens, UniProt Q16665); assay: MST binding to recombinantly expressed HIF-1α PAS-B domain; details: for affinity for the PAS-B domain of HIF-1α compared with cyclo-CLLFVY: compared with previously reported HIF-1 dimerization inhibitor
T1 construct: human HIF-1α PAS-B (238-349); His tag; made in house; host or cells: E. coli BL21(DE3)-Rosetta, pET28a
T1 sequence (Q16665 238-349): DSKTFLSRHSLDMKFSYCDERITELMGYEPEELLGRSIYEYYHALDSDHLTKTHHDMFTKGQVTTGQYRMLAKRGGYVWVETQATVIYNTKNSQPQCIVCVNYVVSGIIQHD
Description: (§1) Genes encoding for human HIF-1α PAS-B (238-349) and HIF-2α PAS-B (240-350) were each cloned into pET28a vectors at the BamHI and SacI restriction sites. The recombinant plasmids were next transformed into BL21(DE3)-Rosetta chemically competent cells. Cells were grown in LB media at 37° C. to an OD600 of 0.7, after which expression was induced by addition of 0.5 mM IPTG. Following overnight expression at 16° C., cells were pelleted and resuspended in buffer containing 50 mM Tris, 150 mM NaCl, 5% glycerol, 1 mM TCEP, protease inhibitors (Roche) and 20 mM imidazole, pH 8.0. Cells were lysed by sonication, and the supernatant applied to a 1 mL Histrap FF affinity column. The His-tagged protein of interest was eluted with buffer containing 50 mM Tris, 150 mM NaCl, 5% glycerol, 1 mM TCEP and 250 mM imidazole. The protein was then loaded onto a HiLoad 16/600 superdex 75 pg size exclusion column (GE healthcare) equilibrated with assay buffer containing 50 mM Tris, 150 mM NaCl, 5% glycerol and 1 mM TCEP, pH 8.0. Fractions containing the desired protein were flash-frozen and stored at −80° C. prior to use.
(§2) HIF-α proteins were labelled with Monolith NT-647 labelling dye (Nanotemper Technologies GmbH) according to the manufacturer's instructions. MST experiments were performed on a Monolith NT.115 system (Nanotemper Technologies GmbH), in assay buffer containing 50 nM labelled protein, 10% DMSO and 0.05% TWEEN-20. MST measurements were performed using 50% LED and 50% MST power.

HIF-2α PAS-B = assay: 2α (μM)
Text: Table printed on a drawing sheet, Figure 3 (part 1 of 3) A
Head of the field: 2α (μM)
The patent's description of the figure: FIG. 3

HIF-2α PAS-B (240-350) = target: T2, HIF-2α PAS-B (240-350) (Homo sapiens, UniProt Q99814); assay: MST binding to recombinantly expressed HIF-2α PAS-B domain; details: MST, recombinant HIF-2α PAS-B domain; read-out: Kd / binding affinity for 2α PAS-B
T2 construct: HIF-2α PAS-B (240-350); His tag; made in house; host or cells: E. coli BL21(DE3)-Rosetta, pET28a
T2 sequence (Q99814 240-350): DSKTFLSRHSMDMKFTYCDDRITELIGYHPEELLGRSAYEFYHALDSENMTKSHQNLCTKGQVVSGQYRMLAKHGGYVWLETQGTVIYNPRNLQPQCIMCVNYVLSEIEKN
Description: The three lead peptides were next chemically synthesised, using Fmoc-solid phase peptide synthesis methodology, followed by in-solution cyclisation under high dilution conditions.
as §1, with “use. […]” for “use.”

[1] = target: T3, human HIF-1α PAS-B (238-349), recombinant, His-tagged (human, UniProt Q16665 238-349, labelled with Monolith NT-647 dye for MST); assay: MST, HIF-1α PAS-B; bar chart of Kd (µM) for residues at position 5 of CRLIIF
T3 construct: range 238-349; Expressed in E. coli BL21(DE3)-Rosetta from pET28a; also called HIF-1α PAS-B domain; PAS-B domain of HIF-1α; not shown: His tag from pET28a vector (BamHI/SacI cloning)
T3 sequence (Q16665 238-349): as the sequence (Q16665 238-349) above

[2] = target: T3, human HIF-1α PAS-B (238-349), …; assay: MST, HIF-1α PAS-B; bar chart of Kd (µM) for residues at position 1 of CRLIIF
[3] = target: T3, human HIF-1α PAS-B (238-349), …; assay: MST, NT-647-labelled recombinant 1α PAS-B
Description: as §2

[4] = target: T4, human HIF-2α PAS-B (240-350), recombinant, His-tagged (human, UniProt Q99814 240-350, labelled with Monolith NT-647 dye for MST); assay: MST, HIF-2α PAS-B (column 2α (µM))
T4 construct: range 240-350; Expressed in E. coli BL21(DE3)-Rosetta from pET28a; also called PAS-B domain of HIF-2α; not shown: His tag from pET28a vector (BamHI/SacI cloning)
T4 sequence (Q99814 240-350): as the sequence (Q99814 240-350) above

[5] = target: T3, human HIF-1α PAS-B (238-349), …; assay: MST, HIF-1α PAS-B (column 1α (µM))

Molecule: CC[C@H](C)[C@@H]1NC(=O)[C@H](CC(C)C)NC(=O)[C@H](CCCCN)NC(=O)[C@H](CS)NC(=O)[C@H](Cc2ccccc2)NC(=O)[C@H]([C@@H](C)CC)NC1=O [Cyclic peptide #1, cyclo-cys lys leu ile ile phe] (cyclo(CKLIIF))
selectivity between 1α and 2α PAS-B domains (in words) (HIF-1α PAS-B (238-349); MST, 1α vs 2α PAS-B): little difference in selectivity
affinity for the PAS-B domain of HIF-1α compared with cyclo-CLLFVY (HIF-1α PAS-B (238-349)): improved affinities

Molecule: CC[C@H](C)[C@@H]1NC(=O)[C@H](C)NC(=O)[C@H](CCCNC(=N)N)NC(=O)[C@H](CS)NC(=O)[C@H](Cc2ccccc2)NC(=O)[C@H]([C@@H](C)CC)NC1=O [compound 8, CRAIIF] (cyclo(CRAIIF))
Kd (HIF-2α PAS-B): 52 ± 7 µM

Molecule: CC[C@H](C)[C@@H]1NC(=O)[C@H](CC(C)C)NC(=O)[C@H](CCCNC(=N)N)NC(=O)[C@H](CS)NC(=O)[C@H](Cc2ccccc2)NC(=O)C(C)(C)NC1=O [Cyclic peptide #38, cyclo-cys agr leu ile (Aib) phe (Aib)F] (cyclo([Aib]FCRLI))
affinity relative to parent peptide CRLIIF (in words) (HIF-1α PAS-B (238-349); MST, SAR substitutions, listed as Aib derivative): weaker Kd than the parent compound; also recorded: markedly improved affinity over both the alanine and aminobutyric acid

Molecule: CC[C@H](C)[C@@H]1NC(=O)[C@H](CC(C)C)NC(=O)[C@H](CCCNC(=N)N)NC(=O)[C@H](CS)NC(=O)[C@H](Cc2ccccc2)NC(=O)[C@H](C)NC1=O [compound 10, CRLIAF]
Kd (HIF-2α PAS-B): 269 ± 7 µM

B2: cyclo-Pen arg leu ile ile phe (peptide)
peptide: cyclo([Pen]RLIIF)
SMILES: CC[C@H](C)[C@@H]1NC(=O)[C@H](CC(C)C)NC(=O)[C@H](CCCNC(=N)N)NC(=O)[C@H](C(C)(C)S)NC(=O)[C@H](Cc2ccccc2)NC(=O)[C@H]([C@@H](C)CC)NC1=O
notes: also called Cyclo-PenRLIIF; cyclic peptide #12d
Kd [2]: 9 µM

B3: cyclo-hcys arg leu ile ile phe (peptide)
peptide: cyclo([hCys]RLIIF)
SMILES: CC[C@H](C)[C@@H]1NC(=O)[C@H](CC(C)C)NC(=O)[C@H](CCCNC(=N)N)NC(=O)[C@H](CCS)NC(=O)[C@H](Cc2ccccc2)NC(=O)[C@H]([C@@H](C)CC)NC1=O
notes: also called Cyclo-hCRLIIF; cyclic peptide #13d
Kd [2]: 44 µM

B7: cyclo-cys arg leu ile ile phe (peptide)
peptide: CRLIIF
modifications: head-to-tail cyclic (cyclo-)
notes: also called CRLIIF; cyclic peptide #4
Kd [2]: 3.9 µM
Kd [3]: 3.8 µM
fold greater affinity than CKLLIF [3]: ~3 fold
Kd [4]: 11 µM

B8: cyclo-cys ala leu ile ile phe (peptide)
peptide: CALIIF
modifications: head-to-tail cyclic (cyclo-)
notes: also called CALIIF; cyclic peptide #10
Kd [5]: 30 µM
Kd [4]: 12 µM

B14: cyclo-cys arg leu ile ala phe (peptide)
peptide: CRLIAF
modifications: head-to-tail cyclic (cyclo-)
notes: also called CRLIAF; cyclic peptide #7
Kd [5]: 111 µM
Kd [4]: 269 µM

B15: T (peptide)
cyclic peptide: TRLIIF
modifications: head-to-tail cyclised
notes: Bar 'T' in the chart of C1 substitutions of CRLIIF; Comparative peptide; also called Cyclo-TRLIIF; cyclo-thr arg leu ile ile phe
Kd [2]: > 200 µM

Second part, the molecule after the results:

Kd / binding affinity for 1α PAS-B (HIF-1α PAS-B (238-349); MST, recombinant HIF-1α PAS-B domain): could not be determined
Molecule: CC[C@H](C)[C@@H]1NC(=O)[C@H](CC(C)C)NC(=O)[C@H](CCCNC(=N)N)NC(=O)[C@H](C)NC(=O)[C@H](Cc2ccccc2)NC(=O)[C@H]([C@@H](C)CC)NC1=O [Cyclic peptide #9, cyclo-ala agr leu ile ile phe] (cyclo(ARLIIF))

Kd (HIF-2α PAS-B (240-350)): 10 to 14 µM
Kd (HIF-1α PAS-B (238-349); MST, recombinant HIF-1α PAS-B domain, read-out: Kd / binding affinity for 1α PAS-B): 10 to 14 µM
affinity for the PAS-B domain of HIF-1α compared with cyclo-CLLFVY (HIF-1α PAS-B (238-349)): improved affinities
Molecule: CC[C@H](C)[C@@H]1NC(=O)[C@H](CC(C)C)NC(=O)[C@H](CC(C)C)NC(=O)[C@H](CCCNC(=N)N)NC(=O)[C@H](CS)NC(=O)[C@H](Cc2ccccc2)NC1=O [Cyclic peptide #2, cyclo-cys arg leu leu ile phe] (cyclo(CRLLIF))

binding result [1]: binds
B1: cyclo-cys arg leu ile (n-leu) phe (peptide)
peptide: cyclo(CRLI[Nle]F)
SMILES: CCCC[C@@H]1NC(=O)[C@H]([C@@H](C)CC)NC(=O)[C@H](CC(C)C)NC(=O)[C@H](CCCNC(=N)N)NC(=O)[C@H](CS)NC(=O)[C@H](Cc2ccccc2)NC1=O
notes: also called Cyclo-CRLI(Nle)F; cyclic peptide #34

Kd [2]: 62 µM
B4: C(Me) (peptide)
cyclic peptide: cyclo([Cys(Me)]RLIIF)
SMILES: CC[C@H](C)[C@@H]1NC(=O)[C@H](CC(C)C)NC(=O)[C@H](CCCNC(=N)N)NC(=O)[C@H](CSC)NC(=O)[C@H](Cc2ccccc2)NC(=O)[C@H]([C@@H](C)CC)NC1=O
notes: Bar 'C(Me)' in the chart of C1 substitutions of CRLIIF; Comparative peptide; also called Cyclo-C(Me)RLIIF; cyclo-(methyl)cys arg leu ile ile phe

binding result [1]: binds
B5: cyclo-cys arg leu ile h-leu phe (peptide)
peptide: cyclo(CRLI[hLeu]F)
SMILES: CC[C@H](C)[C@@H]1NC(=O)[C@H](CC(C)C)NC(=O)[C@H](CCCNC(=N)N)NC(=O)[C@H](CS)NC(=O)[C@H](Cc2ccccc2)NC(=O)[C@H](CCC(C)C)NC1=O
notes: also called Cyclo-CRLI(hL)F; cyclic peptide #33

binding result [1]: binds
B6: cyclo-cys arg leu ile (Nva) phe (peptide)
peptide: cyclo(CRLI[Nva]F)
SMILES: CCC[C@@H]1NC(=O)[C@H]([C@@H](C)CC)NC(=O)[C@H](CC(C)C)NC(=O)[C@H](CCCNC(=N)N)NC(=O)[C@H](CS)NC(=O)[C@H](Cc2ccccc2)NC1=O
notes: also called Cyclo-CRLI(Nva)F; cyclic peptide #35

binding result [1]: binds
B9: cyclo-cys arg leu ile leu phe (peptide)
peptide: CRLILF
modifications: head-to-tail cyclic (cyclo-)
notes: also called Cyclo-CRLILF; cyclic peptide #36

Kd [2]: 169 µM
B10: S (peptide)
cyclic peptide: SRLIIF
modifications: head-to-tail cyclised
notes: Bar 'S' in the chart of C1 substitutions of CRLIIF; Comparative peptide; also called Cyclo-SRLIIF; cyclo-ser arg leu ile ile phe

binding result [1]: binds
B11: cyclo-cys arg leu ile val phe (peptide)
peptide: CRLIVF
modifications: head-to-tail cyclic (cyclo-)
notes: also called Cyclo-CRLIVF; cyclic peptide #37

Kd [2]: > 200 µM
B12: cyclo-ala arg leu ile ile phe (peptide)
peptide: ARLIIF
modifications: head-to-tail cyclic (cyclo-)
notes: also called ARLIIF; cyclic peptide #9

Kd [3]: 12 µM
B13: cyclo-cys lys leu leu ile phe (peptide)
peptide: cyclo(CKLLIF)
modifications: not fully specified
notes: also called CKLLIF; cyclic peptide #5

Kd [5]: 13 µM
Kd [4]: 61 µM
B16: cyclo-cys arg leu ala ile phe (peptide)
peptide: CRLAIF
modifications: head-to-tail cyclic (cyclo-)
notes: also called CRLAIF; cyclic peptide #6

Kd [2]: 108 µM
B17: M (peptide)
cyclic peptide: MRLIIF
modifications: head-to-tail cyclised
notes: Bar 'M' in the chart of C1 substitutions of CRLIIF; Comparative peptide; also called Cyclo-MRLIIF; cyclo-met arg leu ile ile phe

Kd [5]: 53 µM
Kd [4]: 52 µM
B18: cyclo-cys arg ala ile ile phe (peptide)
peptide: CRAIIF
modifications: head-to-tail cyclic (cyclo-)
notes: also called CRAIIF; cyclic peptide #11

Kd [5]: 91 µM
Kd [4]: 373 µM
B19: cyclo-cys arg leu ile ile ala (peptide)
peptide: CRLIIA
modifications: head-to-tail cyclic (cyclo-)
notes: also called CRLIIA; cyclic peptide #8
